Source: article PMC11623648

Target: Integrin αIIbβ3 (human (endogenous in platelets)) (UniProt P05106)
Assay: cryo-EM structure

“Integrin αIIbβ3 (from UniProt P05106 27-788) (complex)” was tested, and the stoichiometry N was 2.
